# Patent publication US7902330 (ALBERT EINSTEIN COLLEGE OF MEDICINE OF YESHIVA UNIVERSITY, dated 2011)
# Starred links: 1 amine or outer side, 2 acyl side, 3 side chain; linkers in the order of their positions; H or OH if unused. Non-standard residues stand in square brackets, D forms with d. No end group written: not given here. *: point of attachment. 4‑nitrohippuryl = O=C(NCC(=O)*)c1ccc([N+](=O)[O-])cc1; Benzoyl(4-(pyrrol-1-yl)) = O=C(c1ccc(-n2cccc2)cc1)*; 10‑hydroxydecanoyl = O=C(CCCCCCCCCO)*; 2,3‑dihydroxybenzyl = Oc1cccc(C*)c1O; Cysteamide = C(CS[*:3])N[*:1]; Dap = NC[C@H](N)C(=O)O
# B1: Compound C (peptide)
# peptide: Ac-RRQG[Dap](4‑nitrohippuryl)FMYF-Cysteamide
# SMILES: CSCC[C@H](NC(=O)[C@H](Cc1ccccc1)NC(=O)[C@H](CNC(=O)CNC(=O)c1ccc([N+](=O)[O-])cc1)NC(=O)CNC(=O)[C@H](CCC(N)=O)NC(=O)[C@H](CCCNC(=N)N)NC(=O)[C@H](CCCNC(=N)N)NC(C)=O)C(=O)N[C@@H](Cc1ccc(O)cc1)C(=O)N[C@@H](Cc1ccccc1)C(=O)NCCS
# B2: compound 4 (diacetylated control peptide) (peptide)
# peptide: Ac-ARRGALR[Dap](Ac)A-NH2
# notes: also called peptide 4; starting parent peptide 4
# Tests used:
# protein kinase C γ [1] = target: T1, protein kinase C γ (UniProt P05129 1-697, limits assumed); experiment: cell-based or functional assay
# protein kinase C ε [2] = target: T2, protein kinase C ε (UniProt Q02156 1-737, limits assumed); experiment: cell-based or functional assay
# T2 sequence (looked up): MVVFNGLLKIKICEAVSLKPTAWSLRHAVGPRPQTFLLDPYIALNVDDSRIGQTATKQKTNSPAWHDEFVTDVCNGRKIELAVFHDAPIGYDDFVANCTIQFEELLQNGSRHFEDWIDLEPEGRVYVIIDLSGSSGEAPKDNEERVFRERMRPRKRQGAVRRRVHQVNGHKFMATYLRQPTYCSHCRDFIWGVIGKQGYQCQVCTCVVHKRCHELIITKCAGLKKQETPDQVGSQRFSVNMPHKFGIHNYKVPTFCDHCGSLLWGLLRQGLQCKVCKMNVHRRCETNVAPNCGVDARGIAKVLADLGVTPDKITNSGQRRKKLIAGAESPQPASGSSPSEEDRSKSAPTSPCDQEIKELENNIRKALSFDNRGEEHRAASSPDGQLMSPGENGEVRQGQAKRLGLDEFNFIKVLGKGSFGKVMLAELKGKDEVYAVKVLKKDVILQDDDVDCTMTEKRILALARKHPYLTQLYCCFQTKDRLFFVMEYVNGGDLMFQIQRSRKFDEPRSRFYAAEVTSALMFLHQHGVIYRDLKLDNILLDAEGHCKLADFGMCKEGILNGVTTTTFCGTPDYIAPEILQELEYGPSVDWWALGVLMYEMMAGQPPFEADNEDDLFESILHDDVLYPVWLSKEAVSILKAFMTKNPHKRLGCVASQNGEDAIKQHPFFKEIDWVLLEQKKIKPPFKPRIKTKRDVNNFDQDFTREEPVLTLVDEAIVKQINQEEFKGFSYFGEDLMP
# protein kinase C η [3] = target: T3, protein kinase C η (UniProt P24723 1-683, limits assumed); experiment: cell-based or functional assay
# T3 sequence (P24723 whole entry): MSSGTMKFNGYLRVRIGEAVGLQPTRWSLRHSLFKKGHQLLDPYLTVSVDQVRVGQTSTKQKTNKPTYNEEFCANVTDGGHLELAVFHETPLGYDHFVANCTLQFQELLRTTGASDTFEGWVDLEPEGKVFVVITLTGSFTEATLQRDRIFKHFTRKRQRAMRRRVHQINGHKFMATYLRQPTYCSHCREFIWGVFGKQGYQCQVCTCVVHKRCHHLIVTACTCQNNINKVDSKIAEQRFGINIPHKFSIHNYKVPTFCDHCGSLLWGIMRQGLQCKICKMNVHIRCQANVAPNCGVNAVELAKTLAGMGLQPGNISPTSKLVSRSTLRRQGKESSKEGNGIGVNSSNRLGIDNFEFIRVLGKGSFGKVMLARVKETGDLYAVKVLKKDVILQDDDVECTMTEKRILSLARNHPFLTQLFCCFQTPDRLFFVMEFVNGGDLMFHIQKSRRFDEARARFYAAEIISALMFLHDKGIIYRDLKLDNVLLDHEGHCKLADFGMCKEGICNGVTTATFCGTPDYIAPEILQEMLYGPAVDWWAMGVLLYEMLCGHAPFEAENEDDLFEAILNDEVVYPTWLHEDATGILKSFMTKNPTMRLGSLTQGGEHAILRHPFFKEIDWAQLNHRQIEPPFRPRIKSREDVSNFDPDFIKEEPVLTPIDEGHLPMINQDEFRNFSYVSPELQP
# protein kinase C θ [4] = target: T4, protein kinase C θ (UniProt Q04759 1-706, limits assumed); experiment: cell-based or functional assay
# T4 sequence (Q04759 whole entry): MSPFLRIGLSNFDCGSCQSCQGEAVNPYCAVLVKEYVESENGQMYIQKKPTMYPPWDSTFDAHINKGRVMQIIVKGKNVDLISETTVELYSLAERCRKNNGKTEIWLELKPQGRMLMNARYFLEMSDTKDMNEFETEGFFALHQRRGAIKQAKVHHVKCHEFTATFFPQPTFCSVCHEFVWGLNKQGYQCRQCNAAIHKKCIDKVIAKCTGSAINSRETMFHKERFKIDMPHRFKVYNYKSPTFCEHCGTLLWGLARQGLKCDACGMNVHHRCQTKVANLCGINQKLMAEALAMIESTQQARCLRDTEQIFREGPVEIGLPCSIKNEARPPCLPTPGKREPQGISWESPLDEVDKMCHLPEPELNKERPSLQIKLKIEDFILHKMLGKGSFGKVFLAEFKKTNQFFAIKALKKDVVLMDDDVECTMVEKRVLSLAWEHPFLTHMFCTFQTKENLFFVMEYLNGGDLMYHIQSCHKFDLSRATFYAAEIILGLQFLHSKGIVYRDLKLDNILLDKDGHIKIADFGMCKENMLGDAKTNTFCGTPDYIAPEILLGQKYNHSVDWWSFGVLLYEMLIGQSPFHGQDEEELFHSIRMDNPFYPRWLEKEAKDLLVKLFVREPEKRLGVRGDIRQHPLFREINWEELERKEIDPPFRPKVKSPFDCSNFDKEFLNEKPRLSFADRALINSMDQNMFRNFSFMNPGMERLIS
# [5] = target: T5, protein kinase C τ (atypical; ι in the tables) (UniProt P41743 1-596); experiment: cell-based or functional assay
# T5 sequence (looked up): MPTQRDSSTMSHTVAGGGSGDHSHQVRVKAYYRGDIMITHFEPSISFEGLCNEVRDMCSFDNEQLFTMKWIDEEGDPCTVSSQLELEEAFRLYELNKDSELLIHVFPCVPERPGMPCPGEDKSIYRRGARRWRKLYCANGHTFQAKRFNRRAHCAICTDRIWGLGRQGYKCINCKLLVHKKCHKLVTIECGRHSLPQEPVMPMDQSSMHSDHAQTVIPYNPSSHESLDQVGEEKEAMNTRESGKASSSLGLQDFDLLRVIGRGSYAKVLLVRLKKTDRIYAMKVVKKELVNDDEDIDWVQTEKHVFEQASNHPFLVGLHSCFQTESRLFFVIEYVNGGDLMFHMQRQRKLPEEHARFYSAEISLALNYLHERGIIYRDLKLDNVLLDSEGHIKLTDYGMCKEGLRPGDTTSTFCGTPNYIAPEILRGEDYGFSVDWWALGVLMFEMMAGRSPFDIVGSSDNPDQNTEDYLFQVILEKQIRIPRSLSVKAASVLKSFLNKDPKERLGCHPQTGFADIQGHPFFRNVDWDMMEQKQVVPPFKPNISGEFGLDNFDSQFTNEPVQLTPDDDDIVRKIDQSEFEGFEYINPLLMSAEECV
# protein kinase C ζ [6] = target: T6, protein kinase C ζ (UniProt Q05513 1-592, limits assumed); experiment: cell-based or functional assay
# T6 sequence (looked up): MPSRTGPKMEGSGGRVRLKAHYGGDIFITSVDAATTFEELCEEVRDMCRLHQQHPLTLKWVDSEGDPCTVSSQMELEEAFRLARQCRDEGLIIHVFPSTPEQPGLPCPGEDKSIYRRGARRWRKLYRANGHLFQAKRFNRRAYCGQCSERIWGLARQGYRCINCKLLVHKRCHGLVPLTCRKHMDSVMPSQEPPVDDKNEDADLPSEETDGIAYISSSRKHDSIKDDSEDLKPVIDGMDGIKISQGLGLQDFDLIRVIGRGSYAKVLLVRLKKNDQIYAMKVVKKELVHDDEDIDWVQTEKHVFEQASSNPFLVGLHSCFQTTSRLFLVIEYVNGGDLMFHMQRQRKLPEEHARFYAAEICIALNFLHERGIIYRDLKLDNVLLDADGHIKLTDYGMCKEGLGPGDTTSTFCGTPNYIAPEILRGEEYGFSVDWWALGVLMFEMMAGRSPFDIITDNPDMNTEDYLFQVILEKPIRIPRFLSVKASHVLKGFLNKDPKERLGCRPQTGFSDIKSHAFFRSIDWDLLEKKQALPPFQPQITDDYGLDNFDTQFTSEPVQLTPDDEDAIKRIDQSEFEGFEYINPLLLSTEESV
# protein kinase Cα [7] = target: T7, protein kinase Cα (UniProt P17252 1-672, limits assumed); experiment: cell-based or functional assay
# protein kinase C βI [8] = target: T8, protein kinase C βI (UniProt P05771-1 1-671, limits assumed); experiment: cell-based or functional assay
# T8 sequence (P05771 whole entry): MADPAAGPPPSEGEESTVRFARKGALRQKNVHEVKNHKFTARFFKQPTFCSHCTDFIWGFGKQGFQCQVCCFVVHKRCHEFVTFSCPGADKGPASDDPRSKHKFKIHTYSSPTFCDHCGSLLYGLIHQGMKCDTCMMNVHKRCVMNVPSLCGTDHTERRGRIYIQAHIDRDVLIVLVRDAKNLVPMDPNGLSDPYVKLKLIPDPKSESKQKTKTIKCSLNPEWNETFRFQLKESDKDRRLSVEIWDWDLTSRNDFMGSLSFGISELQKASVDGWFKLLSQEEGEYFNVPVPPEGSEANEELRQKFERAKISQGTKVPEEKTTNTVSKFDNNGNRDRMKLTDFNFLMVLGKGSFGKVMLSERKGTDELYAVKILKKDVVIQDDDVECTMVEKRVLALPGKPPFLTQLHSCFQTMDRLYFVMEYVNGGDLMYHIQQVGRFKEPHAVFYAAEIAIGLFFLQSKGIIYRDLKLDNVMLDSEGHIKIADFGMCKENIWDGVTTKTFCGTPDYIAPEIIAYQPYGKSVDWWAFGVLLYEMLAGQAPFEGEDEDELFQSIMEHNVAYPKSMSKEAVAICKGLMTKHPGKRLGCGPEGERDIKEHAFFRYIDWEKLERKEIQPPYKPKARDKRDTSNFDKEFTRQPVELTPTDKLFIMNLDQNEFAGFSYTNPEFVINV
# protein kinase Cα [9] = target: T7, protein kinase Cα; experiment: cell-based or functional assay; remark: listed apart in the source
# protein kinase Cα [10] = target: T7, protein kinase Cα; experiment: PKCα 33P kinase assay, Ki obtained by varying the concentration of peptide substrate Ac-Ser-Phe-Arg-Arg-Arg-NH2
# Description: Subsequent assay workup and scintillation counting were performed as described under "Protein Kinase C α, β and γ Assay (library screening)".
# The reaction was initiated as described above. […] Following an additional 5 min incubation at ambient temperature, 75 µL from each reaction well was transferred into each well of a Unifilter (P81 cellulose phosphate paper) assay plate and washed four times with 0.1% phosphoric acid in water. […] IC$50$ values were calculated using GraFit (Erithacus Software Limited) and K_i values were calculated using Enzyme Kinetics, SigmaPlot (SPSS Inc.)
# protein kinase C γ [11] = target: T1, protein kinase C γ; experiment: cell-based or functional assay; remark: listed apart in the source
# protein kinase C ε [12] = target: T2, protein kinase C ε; experiment: cell-based or functional assay; remark: listed apart in the source
# protein kinase C η [13] = target: T3, protein kinase C η; experiment: cell-based or functional assay; remark: listed apart in the source
# protein kinase C θ [14] = target: T4, protein kinase C θ; experiment: cell-based or functional assay; remark: listed apart in the source
# [15] = target: T5, protein kinase C τ (atypical; printed ι …); experiment: cell-based or functional assay; remark: listed apart in the source
# protein kinase C ζ [16] = target: T6, protein kinase C ζ; experiment: cell-based or functional assay; remark: listed apart in the source
# protein kinase Cα [17] = target: T7, protein kinase Cα; experiment: cell-based or functional assay; remark: listed apart in the source
# protein kinase C βI [18] = target: T8, protein kinase C βI; experiment: cell-based or functional assay; remark: listed apart in the source
# protein kinase C γ [19] = target: T1, protein kinase C γ; experiment: cell-based or functional assay; remark: listed apart in the source
# protein kinase C ε [20] = target: T2, protein kinase C ε; experiment: cell-based or functional assay; remark: listed apart in the source
# protein kinase C η [21] = target: T3, protein kinase C η; experiment: cell-based or functional assay; remark: listed apart in the source
# protein kinase C θ [22] = target: T4, protein kinase C θ; experiment: cell-based or functional assay; remark: listed apart in the source
# [23] = target: T5, protein kinase C τ (atypical; printed ι …); experiment: cell-based or functional assay; remark: listed apart in the source
# protein kinase C ζ [24] = target: T6, protein kinase C ζ; experiment: cell-based or functional assay; remark: listed apart in the source
# protein kinase Cα [25] = target: T7, protein kinase Cα; experiment: cell-based or functional assay; remark: listed apart in the source
# protein kinase C βI [26] = target: T8, protein kinase C βI; experiment: cell-based or functional assay; remark: listed apart in the source
binder,measurement,setting,value
"ARRGALR[Dap](Benzoyl(4-(pyrrol-1-yl)))A-Cysteamide (also: further groups not given here, also called peptide 6; Compound H) [compound 6 (primary lead from library IV)]",selectivity for PKCα versus this isoform,protein kinase C γ [1],580 fold
same,selectivity for PKCα versus this isoform,protein kinase C ε [2],600 fold
same,selectivity for PKCα versus this isoform,protein kinase C η [3],1310 fold
same,selectivity for PKCα versus this isoform,protein kinase C θ [4],1210 fold
same,selectivity for PKCα versus this isoform,[5],940 fold
same,selectivity for PKCα versus this isoform,protein kinase C ζ [6],640 fold
same,IC50 as an inhibitor of histone III-S phosphorylation by PKCα,protein kinase Cα [7],0.0317 µM
same,selectivity for PKCα versus this isoform,protein kinase C βI [8],385 fold
same,"IC50, PKCα-catalysed phosphorylation of peptide substrate (33P assay)",protein kinase Cα [9],0.0019 µM
same,Ki,protein kinase Cα [10],0.0008 µM
H-RRQG[Dap]FMYF-Cysteamide (not fully specified (residue 5)) [Compound E (nonacylated free amine)],"IC50, PKC kinase assay (33P, peptide substrate)",protein kinase C γ [11],4.4 µM
same,Selectivity (IC50 relative to PKC βI = 1),protein kinase C γ [11],550 fold
same,"IC50, PKC kinase assay (33P, peptide substrate)",protein kinase C ε [12],2.3 µM
same,Selectivity (IC50 relative to PKC βI = 1),protein kinase C ε [12],287 fold
same,"IC50, PKC kinase assay (33P, peptide substrate)",protein kinase C η [13],13.2 µM
same,Selectivity (IC50 relative to PKC βI = 1),protein kinase C η [13],1650 fold
same,"IC50, PKC kinase assay (33P, peptide substrate)",protein kinase C θ [14],14.2 µM
same,Selectivity (IC50 relative to PKC βI = 1),protein kinase C θ [14],1780 fold
same,Selectivity (IC50 relative to PKC βI = 1),[15],94 fold
same,"IC50, PKC kinase assay (33P, peptide substrate)",protein kinase C ζ [16],0.022 µM
same,Selectivity (IC50 relative to PKC βI = 1),protein kinase C ζ [16],2.8 fold
same,"IC50, PKC kinase assay (33P, peptide substrate)",protein kinase Cα [17],3.1 µM
same,Selectivity (IC50 relative to PKC βI = 1),protein kinase Cα [17],387 fold
same,"IC50, PKC kinase assay (33P, peptide substrate)",protein kinase C βI [18],0.008 µM
same,Selectivity (IC50 relative to PKC βI = 1),protein kinase C βI [18],1 fold
B1,"IC50, PKC ζ kinase assay",protein kinase C ζ [6],6.4 µM
Ac-ARRGALR[Dap](Benzoyl(4-(pyrrol-1-yl)))A-Cysteamide (also called peptide 3) [compound 3 (lead from library III)],"IC50, PKCα-catalysed phosphorylation of peptide substrate (33P assay)",protein kinase Cα [9],4.7 µM
same,Ki,protein kinase Cα [10],0.55 µM
Ac-RRQG[Dap](10‑hydroxydecanoyl)FMYF-Cysteamide [Compound B],"IC50, PKC ζ kinase assay",protein kinase C ζ [6],0.85 µM
same,IC50 relative to the diacetylated parent peptide A,protein kinase C ζ [6],~100 fold
"{2,3‑dihydroxybenzyl}-RRQG[Dap](4‑nitrohippuryl)FMYF-Cysteamide [Compound F]","IC50, PKC kinase assay (33P, peptide substrate)",protein kinase C γ [11],9 µM
same,"IC50, PKC kinase assay (33P, peptide substrate)",protein kinase C ε [12],8.8 µM
same,"IC50, PKC kinase assay (33P, peptide substrate)",protein kinase C η [13],12.3 µM
same,"IC50, PKC kinase assay (33P, peptide substrate)",protein kinase C θ [14],13.7 µM
same,"IC50, PKC kinase assay (33P, peptide substrate)",protein kinase C ζ [16],3.6 µM
same,"IC50, PKC kinase assay (33P, peptide substrate)",protein kinase Cα [17],17 µM
same,"IC50, PKC kinase assay (33P, peptide substrate)",protein kinase C βI [18],3.1 µM
same,"Fold selectivity (IC50), PKC δ = 1",protein kinase C γ [19],500 fold
same,"Fold selectivity (IC50), PKC δ = 1",protein kinase C ε [20],489 fold
same,"Fold selectivity (IC50), PKC δ = 1",protein kinase C η [21],683 fold
same,"Fold selectivity (IC50), PKC δ = 1",protein kinase C θ [22],761 fold
same,"Fold selectivity (IC50), PKC δ = 1",[23],26 fold
same,"Fold selectivity (IC50), PKC δ = 1",protein kinase C ζ [24],200 fold
same,"Fold selectivity (IC50), PKC δ = 1",protein kinase Cα [25],944 fold
same,"Fold selectivity (IC50), PKC δ = 1",protein kinase C βI [26],172 fold
B2,"IC50, PKCα-catalysed phosphorylation of peptide substrate (33P assay)",protein kinase Cα [9],1100 µM
same,Ki,protein kinase Cα [10],350 µM
Ac-RRQG[Dap](Ac)FMYF-Cysteamide [Compound A (diacetylated consensus derivative)],"IC50, PKC kinase assay",protein kinase C ζ [6],80 µM
